This experiment has as its target amphotropic retrovirus receptor, endogenous on human 293 cells (human) (UniProt Q08357). The experiment can be described thus: cell-based or functional assay.
UniProt Q08357, sequence (Q08357 whole entry): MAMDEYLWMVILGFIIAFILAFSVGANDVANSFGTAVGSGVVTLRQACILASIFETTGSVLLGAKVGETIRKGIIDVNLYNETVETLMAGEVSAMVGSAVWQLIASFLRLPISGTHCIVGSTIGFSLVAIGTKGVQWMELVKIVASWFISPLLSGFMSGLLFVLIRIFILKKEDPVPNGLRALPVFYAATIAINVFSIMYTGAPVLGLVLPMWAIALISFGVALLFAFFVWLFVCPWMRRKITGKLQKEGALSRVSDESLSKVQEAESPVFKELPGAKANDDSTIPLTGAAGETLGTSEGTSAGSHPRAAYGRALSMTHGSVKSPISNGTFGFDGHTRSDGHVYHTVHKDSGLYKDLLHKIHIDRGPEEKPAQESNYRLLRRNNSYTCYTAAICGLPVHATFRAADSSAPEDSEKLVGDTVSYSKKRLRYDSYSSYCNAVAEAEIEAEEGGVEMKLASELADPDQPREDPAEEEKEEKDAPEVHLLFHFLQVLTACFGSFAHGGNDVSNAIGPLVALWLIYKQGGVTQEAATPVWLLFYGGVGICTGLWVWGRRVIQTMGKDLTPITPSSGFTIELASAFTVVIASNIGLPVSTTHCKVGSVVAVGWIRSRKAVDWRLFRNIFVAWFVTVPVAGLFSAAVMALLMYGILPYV

The substance “ampho/eco+Q227R/D243Y fusion envelope protein: residues 1-208 of amphotropic 4070A envelope protein fused between Serine 6 and Proline 7 of MoMLV mutant envelope protein Q227R/D243Y” returned a delivery of the lacZ gene (infectious titer) to human 293 cells expressing the amphotropic receptor but not the ecotropic receptor of 1000 fold.

The record behind these values is patent US6448390.
